The target in the assay is HLA-A*02:01 (Homo sapiens, UniProt P04439, D140Y/D185E/D98H/E176V/E277Q/G131W/G231S/I119V/I121R/I166T/I218V/L300P/L318F/N151K/N90K/P208A/P217A/Q86G/Q94H/R138H/R169H/T345S). Description: MHC binding assay (UV-ligand exchange, anti-β2m ELISA, peptide exchange yield). The following applies: binding to HLA-A*02:01. An outline of the steps:
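Yield of stabilized complexes quantified via the β2m light chain in an ELISA (streptavidin capture, 100-fold diluted monomers, HRP anti-β2m 2 ug/ml at 37 °C, TMB, A450). The complexes come from UV-triggered replacement of a photocleavable ligand by the candidate peptide.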
A general note: ELISA stands for enzyme-linked immunosorbent assay.
For “272 (ALGNTVPAV; listed as Homo sapiens) [compound 272]”, the “Peptide exchange (MHC class I binding score, peptide exchange yield)” value (“Peptide exchange” for short) is given as ““+++” (>50 = +++)”.

“131 (FVPPVTVFPSL; listed as Homo sapiens) [compound 131]”: the “Peptide exchange” value was ““++” (>20% = ++)”.

Take “595 (VLLSIYPRV; listed as Homo sapiens) [compound 595]”: the “Peptide exchange” value is given as ““+++” (>50 = +++)”.

Consider “583 (ILANDGVLLAA; listed as Homo sapiens) [compound 583]”, for which the “Peptide exchange” value is recorded as ““+++” (>50 = +++)”.

With “564 (TVTNAVVTV; listed as Homo sapiens) [compound 564]”, the “Peptide exchange” value is given as ““+++” (>50 = +++)”.

On to “604 (SILDRDDIFV; listed as Homo sapiens) [compound 604]”, for which the “Peptide exchange” value is ““+++” (>50 = +++)”.

For “614 (LLLPDQPPYHL; listed as Homo sapiens) [compound 614]”, the “Peptide exchange” value is ““+++” (>50 = +++)”.

In the case of “74 (ALLDPEVLSIFV; listed as Homo sapiens) [compound 74]”, the “Peptide exchange” value is listed as ““+++” (>50 = +++)”.

Regarding “318 (GLINTGVLSV; listed as Homo sapiens) [compound 318]”, the “Peptide exchange” value is recorded as ““++” (>20% = ++)”.

As for “254 (TLLAFIMEL; listed as Homo sapiens) [compound 254]”, the “Peptide exchange” value was ““+++” (>50 = +++)”.

On to “506 (KLLGKVETA; listed as Homo sapiens) [compound 506]”, for which the “Peptide exchange” value is ““+++” (>50 = +++)”.

Turning to “467 (FLAKDFNFL; listed as Homo sapiens) [compound 467]”, the “Peptide exchange” value is reported as ““+++” (>50 = +++)”.

For the substance “72 (SLLELDGINL; listed as Homo sapiens) [compound 72]”, the “Peptide exchange” value is reported as ““+++” (>50 = +++)”.

Take “249 (LLDGFLVNV; listed as Homo sapiens) [compound 249]”: the “Peptide exchange” value is reported as ““+++” (>50 = +++)”.

Consider “91 (IMQDFPAEIFL; listed as Homo sapiens) [compound 91]”, for which the “Peptide exchange” value is listed as ““++++” (>75% = ++++)”.

On to “100 (YLLSTNAQL; listed as Homo sapiens) [compound 100]”, for which the “Peptide exchange” value is ““++++” (>75% = ++++)”.

Take “373 (SLLEDKGLAEV; listed as Homo sapiens) [compound 373]”: the “Peptide exchange” value is given as ““++” (>20% = ++)”.

With “89 (YILPTETIYV; listed as Homo sapiens) [compound 89]”, the “Peptide exchange” value is ““++++” (>75% = ++++)”.

As for “241 (SLVEVNPAYSV; listed as Homo sapiens) [compound 241]”, the “Peptide exchange” value is ““+++” (>50 = +++)”.

In the case of “325 (FIMPATVADATAV; listed as Homo sapiens) [compound 325]”, the “Peptide exchange” value is reported as ““+++” (>50 = +++)”.

Take “85 (KMSELRVTL; listed as Homo sapiens) [compound 85]”: the “Peptide exchange” value is given as ““+++” (>50 = +++)”.

“403 (KLYDRILRV; listed as Homo sapiens) [compound 403]”: the “Peptide exchange” value was ““++” (>20% = ++)”.

For “393 (GLLDTQTSQVLTA; listed as Homo sapiens) [compound 393]”, the “Peptide exchange” value is listed as ““++” (>20% = ++)”.

As to “438 (KLLPLAGLYL; listed as Homo sapiens) [compound 438]”, the “Peptide exchange” value is ““++++” (>75% = ++++)”.

Take “164 (ALLPQPKNLTV; listed as Homo sapiens) [compound 164]”: the “Peptide exchange” value is ““+++” (>50 = +++)”.

Consider “340 (ALLSMTFPL; listed as Homo sapiens) [compound 340]”, for which the “Peptide exchange” value is recorded as ““++++” (>75% = ++++)”.

Consider “54 (SLLEQGKEPWMV; listed as Homo sapiens) [compound 54]”, for which the “Peptide exchange” value is listed as ““+++” (>50 = +++)”.

Turning to “120 (ALLGIPLTLV; listed as Homo sapiens) [compound 120]”, the “Peptide exchange” value is recorded as ““+++” (>50 = +++)”.

For “71 (GILARIASV; listed as Homo sapiens) [compound 71]”, the “Peptide exchange” value is on record as ““+++” (>50 = +++)”.

As to “473 (AMATESILHFA; listed as Homo sapiens) [compound 473]”, the “Peptide exchange” value is on record as ““+++” (>50 = +++)”.

On to “542 (RVWDISTVSSV; listed as Homo sapiens) [compound 542]”, for which the “Peptide exchange” value was ““+++” (>50 = +++)”.

As for “429 (GLVNDLARV; listed as Homo sapiens) [compound 429]”, the “Peptide exchange” value is ““++” (>20% = ++)”.

Turning to “122 (FLLAEDDIYL; listed as Homo sapiens) [compound 122]”, the “Peptide exchange” value is reported as ““+++” (>50 = +++)”.

On to “220 (LLQKFVPEI; listed as Homo sapiens) [compound 220]”, for which the “Peptide exchange” value was ““++” (>20% = ++)”.

As to “555 (YVLEGLKSV; listed as Homo sapiens) [compound 555]”, the “Peptide exchange” value is ““+++” (>50 = +++)”.

For “138 (YQYPRAILSV; listed as Homo sapiens) [compound 138]”, the “Peptide exchange” value is ““+++” (>50 = +++)”.

With “179 (KVLNELYTV; listed as Homo sapiens) [compound 179]”, the “Peptide exchange” value was ““+++” (>50 = +++)”.

“531 (YTLPIASSIRL; listed as Homo sapiens) [compound 531]”: the “Peptide exchange” value is recorded as ““+++” (>50 = +++)”.

Regarding “611 (YLLDDGTLVV; listed as Homo sapiens) [compound 611]”, the “Peptide exchange” value is listed as ““++++” (>75% = ++++)”.

Turning to “412 (YLDDLNEGVYI; listed as Homo sapiens) [compound 412]”, the “Peptide exchange” value is given as ““++” (>20% = ++)”.

On to “538 (LLLAHIIAL; listed as Homo sapiens) [compound 538]”, for which the “Peptide exchange” value is ““++” (>20% = ++)”.

Regarding “354 (LILEGVDTV; listed as Homo sapiens) [compound 354]”, the “Peptide exchange” value is ““++” (>20% = ++)”.

Take “275 (YLVYILNEL; listed as Homo sapiens) [compound 275]”: the “Peptide exchange” value was ““++” (>20% = ++)”.

For “31 (YLAPELFVNV; listed as Homo sapiens) [compound 31]”, the “Peptide exchange” value was ““++” (>20% = ++)”.

As for “480 (ALLEDSCHYL; listed as Homo sapiens) [compound 480]”, the “Peptide exchange” value is given as ““+++” (>50 = +++)”.

Turning to “573 (ILVANAIVGV; listed as Homo sapiens) [compound 573]”, the “Peptide exchange” value is given as ““+++” (>50 = +++)”.

The record behind these values is US10239925B2, “Peptides and combination of peptides for use in immunotherapy against ovarian cancer and other cancers” (IMMATICS BIOTECHNOLOGIES GMBH, priority 2015, dated 2019).
